Values of other authors in publication PMC2908543, “Uropathogenic Escherichia coli Modulates Immune Responses and Its Curli Fimbriae Interact with the Antimicrobial Peptide LL-37” (PLoS Pathogens, 2010).

Tested on: Pseudomonas aeruginosa
Details: ref [47]
Description: Biofilm inhibition by antimicrobial polypeptides has previously been described for Pseudomonas aeruginosa. […] A direct interaction with biofilm components was not investigated in these studies. The effect was rather related to an influence of LL-37 on the bacterial gene expression profile or an influence of lactoferrin on free iron. These and our findings stress an important anti-biofilm role of antimicrobial polypeptides in host defense. It is likely that the anti-biofilm activit ...

B1: lactoferrin (protein, UniProt P02788 20-710, looked up)
Lactotransferrin: GRRRSVQWCAVSQPEATKCFQWQRNMRKVRGPPVSCIKRDSPIQCIQAIAENRADAVTLDGGFIYEAGLAPYKLRPVAAEVYGTERQPRTHYYAVAVVKKGGSFQLNELQGLKSCHTGLRRTAGWNVPIGTLRPFLNWTGPPEPIEAAVARFFSASCVPGADKGQFPNLCRLCAGTGENKCAFSSQEPYFSYSGAFKCLRDGAGDVAFIRESTVFEDLSDEAERDEYELLCPDNTRKPVDKFKDCHLARVPSHAVVARSVNGKEDAIWNLLRQAQEKFGKDKSPKFQLFGSPSGQKDLLFKDSAIGFSRVPPRIDSGLYLGSGYFTAIQNLRKSEEEVAARRARVVWCAVGEQELRKCNQWSGLSEGSVTCSSASTTEDCIALVLKGEADAMSLDGGYVYTAGKCGLVPVLAENYKSQQSSDPDPNCVDRPVEGYLAVAVVRRSDTSLTWNSVKGKKSCHTAVDRTAGWNIPMGLLFNQTGSCKFDEYFSQSCAPGSDPRSNLCALCIGDEQGENKCVPNSNERYYGYTGAFRCLAENAGDVAFVKDVTVLQNTDGNNNEAWAKDLKLADFALLCLDGKRKPVTEARSCHLAMAPNHAVVSRMDKVERLKQVLLHQQAKFGRNGSDCPDKFCLFQSETKNLLFNDNTECLARLHGKTTYEKYLGPQYVAGITNLKKCSTSPLLEACEFLRK
notes: antimicrobial polypeptide
bacterial surface motility mediated by type IV pili: increased bacterial surface motility
